# Laboratory results taken from the supplement of paper PMC12042874.
# ± gives the uncertainty stated by the source.
# Assay: amyloid nucleation score (Sup35N fusion, yeast selection) (log enrichment); library NNK2; higher = more nucleation; inactive = no reads after selection
# Procedure, shortened: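 The nucleation score equals the log enrichment of output over input reads from DiMSum, centred on the mode score of non-aggregating sequences. It was computed only for sequences with 100 or more input reads. The reads came from Illumina sequencing of plasmid inserts from psi-negative yeast expressing Sup35N fused to peptides of 20 random codons, induced with 100 μM copper sulfate for 24 hours and grown 7 days at 30°C without adenine and uracil.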
row,Substance,amyloid nucleation score
1,SLAIAVNAMIHNIPADIWMH,6.27 ± 0.083
2,AKRDMAKKYLSGYHGVLWYV,0.077 ± 0.63
3,GLGSRWRCA,2.01 ± 0.24
4,WLLLYTCHLMISQISFHRKS,-0.874 ± 0.61
5,AIRLLDVLRCRG,3.88 ± 0.087
6,DYVSGYRVGQFVMLLGRLRN,-0.205 ± 0.55
7,VAHKSPFIAHFTWVILAYGM,0.211 ± 0.61
8,TIFSNFGSMSLIGHGIEQVI,-1.39 ± 0.76
9,KKACSLFTRGFGRYRNTYEV,inactive
10,SLLIFMSFYYWLQVSYRPPR,-1.3 ± 1.1
11,LWSGFLSFVSNVPTFLYLS,-2.01 ± 0.41
12,TLNTNMRSLLRI,inactive
13,CFIPLGVNFGDRTWLTVRIR,0.357 ± 0.41
14,ANVWRSLFAFTIANVTIPR,5.714 ± 0.045
15,QGGLDRMYGSDVVYFKDTYP,0.379 ± 0.54
16,TCYLGPWCPIHDTRIRPGWV,0.698 ± 0.21
17,NSNTKTSPIISW,inactive
18,TFVITLNGHSCQVGTITPRN,8.012 ± 0.04
19,IVWLLLSGRF,4.54 ± 0.098
20,FYPSWNLYRVRGQPYLNRVR,-0.352 ± 1.1
21,GRGAAILYMECYAVAEVCTF,0.108 ± 0.26
22,FCVLIGGCFFGNSK,6.157 ± 0.038
23,MWTLLVKSTKGAHGQYSVMH,0.397 ± 0.22
24,TIMNYTGCYFGPVGPDRDLG,6.824 ± 0.042
25,YMADSPLELDSSMTDYLCPV,4.18 ± 0.069

row,Substance,amyloid nucleation score
1,NADPNCLSK,0.508 ± 0.57
2,FYHYDLLYRSGVLWRNHHGP,2.77 ± 0.1
3,HVAQTS,1.04 ± 0.4
4,YIPIYMGWTGRNRTVMH,inactive
5,TSCFLLILCLQMKCTSFTSS,2.18 ± 0.11
6,ILICKILKTRMKVSRDMVMK,inactive
7,YSGFLRCLAYALI,0.061 ± 0.8
8,IRWMTHWKV,0.834 ± 0.43
9,RLEPYCILSRV,-1.75 ± 0.48
10,LQLCCAMVS,0.883 ± 0.44
11,SDNEEKTCGAFVVLS,-0.719 ± 0.49
12,RVRNMS,0.1 ± 0.32
13,ASCNKGPEKSGQLFLLSAFL,-0.641 ± 0.49
14,EEMMFPFAFVFFICSFRNRL,2.9 ± 0.065
15,SIHEMYFKAMDSVH,-0.276 ± 0.62
16,KYSVMLALLEPIRWTWLIQF,0.323 ± 0.62
17,NFLADCLDGSANAIWVHVAS,0.57 ± 0.23
18,KFTVDFYLTACTGTKIDFMV,5.981 ± 0.04
19,SKRFIVIATLNTYMFQKLEF,inactive
20,LVMRMFRERYNLCVSYWLN,inactive
21,ISVRVFNRNT,3.15 ± 0.078
22,CRFALSMYNWVLYNRNFQLI,-0.363 ± 1.1
23,TTRRC,-0.43 ± 0.32
24,GIQGLRVWFAYMFPSVVLLC,-0.987 ± 0.78
25,RFYDFLFLFIPSRIELIMFR,-0.729 ± 1.1

row,Substance,amyloid nucleation score
1,KGSSSWTLPVYSLELSLV,-0.731 ± 0.79
2,PKIMKFGKCYTP,0.065 ± 0.28
3,SFSVVGNHHVCMDYDMVLNG,0.315 ± 0.32
4,DYILLARYSRNVHCS,-0.343 ± 0.37
5,DCARERYKLYNRLHWPSLSS,0.474 ± 0.26
6,ISFIDHYVY,inactive
7,INRKGRRI,0.007 ± 0.79
8,RRSFTTADTCLLIS,-0.695 ± 0.54
9,YTLFYARNLSSMDVICN,-1.09 ± 0.76
10,EGFEFCWINNMDWSMPWVTN,5.08 ± 0.062
11,VLRANGCWLFMLHNLIYLWL,0.172 ± 0.65
12,TLMIYCFFSGFLKGVWMM,0.053 ± 0.8
13,RFGSADVSITRVDFSS,0.961 ± 0.15
14,ASTLPYYECEYR,0.343 ± 0.18
15,WVYFHSNNSDLLDNEIKLTR,0.652 ± 0.66
16,RMGKRNFEQNSANQWVPMNP,0.691 ± 0.6
17,EGRCNYTGHMFCRYLCKHYT,-0.088 ± 1.1
18,IKYFY,-0.939 ± 0.49
19,RVNFSGIDVVRLFHYCFYMK,-1.51 ± 0.76
20,ITYNIEISMRDF,4.32 ± 0.11
21,QQLLSMLLFNFQYGCARLYC,0.072 ± 0.44
22,CGCHCVYSPYYCFLTYWCAN,-0.542 ± 0.76
23,NNRQK,0.63 ± 0.43
24,CESPLSYWWRSRSLFSLCVE,-0.359 ± 0.55
25,EEVVVVWFIRDKDLALKLVV,inactive

row,Substance,amyloid nucleation score
1,NNHGLRTYIGPYISWLIYFS,2.53 ± 0.17
2,CAKCVMCSNCPKNSGRILYR,-1.12 ± 1.1
3,DHSEYSVITKFVLHRSCSQG,8.451 ± 0.067
4,VSQGRFKYERVVCVNFGKEL,0.201 ± 0.74
5,VFPMNELMASTVNKA,6.274 ± 0.033
6,GSSNASVATGFVHIKEVKGG,0.461 ± 0.8
7,VGLCVLFRWLHKTWMMEWLG,0.426 ± 0.35
8,AVQVLYRGTFLLPFWRVANV,-0.487 ± 1.1
9,YSLVRIFDGVWITRDSCNIL,inactive
10,VHDRLRLGWGAYGYPFGVLM,0.027 ± 1
11,FKIDNGWYWCRTCGQNKGSS,-0.461 ± 0.56
12,RTERSAFLLAPGNGLSRVRR,0.831 ± 0.4
13,PRKDLPEYSLYSDLEPLVCN,-1.25 ± 0.62
14,SVYNWYIIPANCEQDLCM,5.54 ± 0.095
15,SCMLFEAAYPRVYMYWSRRF,-1.91 ± 0.75
16,RGWKSLWRLNFYVWVWHLKD,2.67 ± 0.09
17,CRAHMCLQFNYWTRVMNTPT,6.809 ± 0.068
18,HIIPEYRVFLLLFHDDGAGF,inactive
19,TFRIERSVGWYCNRASYSCK,1.02 ± 0.21
20,LALSWRNDSYNLKNVLRLLG,-1.16 ± 0.28
21,VNKQNPGVYFLHRGFFVLSR,-1.57 ± 0.78
22,KMDFAFEA,-0.202 ± 0.8
23,WRVATCCAGRTIIQLETRFG,8.805 ± 0.058
24,VCSGGLQDSRGYCCYPVGRM,1.31 ± 0.32
25,DGNAVCDILLLTSIMVSVSA,-0.551 ± 0.54

row,Substance,amyloid nucleation score
1,SLSKKMFRCRS,3.4 ± 0.12
2,NSFYRCYVRCIVSVRFLCCH,5.008 ± 0.035
3,IPVDT,-0.668 ± 1.1
4,VMMNSCNCRSYTLYLL,9.183 ± 0.075
5,AVISGCFMRGLTTRIRTTLM,-0.073 ± 0.74
6,IFSISNFAITVSNTLTV,1.06 ± 0.32
7,GYSAYESANWRLA,1.19 ± 0.44
8,RLNYA,0.772 ± 0.81
9,GCYHVMVRNNKTGVLVMRSA,0.545 ± 0.57
10,IIVYVDDSPLYAVSRLQSYC,0.758 ± 0.13
11,QSLHTSANSLLNWNFMSLLT,0.871 ± 0.29
12,YSFMS,-0.458 ± 0.27
13,GDIRLLSRNVLGYIGALLDL,0.179 ± 0.39
14,LTSISYIIGDRWSIEVGRVF,-0.337 ± 1.1
15,TLYMFMPMLFNVIPEVRWPP,9.03 ± 0.071
16,SWFSSNFFFY,5.27 ± 0.058
17,RSVWNASAFVAIFFRVRSQA,0.547 ± 0.36
18,HRLLVPDHTMYVSLKRKGLR,0.092 ± 1.1
19,FRSMFISWVM,-0.271 ± 1
20,LCWPIFNFVFVSNPMLKLRL,inactive
21,KLAPLNKGSFA,-0.211 ± 0.63
22,SGEVSAVRV,0.852 ± 0.19
23,YSVYKTLA,-1.51 ± 0.78
24,LVEVIGFVRVSEPISTHA,0.884 ± 0.33
25,VRFTAWICVYRYKEGWWRSL,-0.417 ± 0.24

row,Substance,amyloid nucleation score
1,FVKYNCIFNASLTCHK,7.686 ± 0.038
2,NGVGLSVTGKCCKERSIFPP,-0.406 ± 0.5
3,LSLNFLPYWLPQARCL,5.06 ± 0.099
4,VNGYIPRNAAVGQYATRALK,-0.032 ± 1.1
5,NTSHGFQSNPRGAYERILCV,-0.961 ± 0.63
6,TFWLIRTSHRGYRYEKVCTY,-0.017 ± 0.49
7,NTWYLTKADLDRVGAVMVQT,inactive
8,MYCLFFFMWGCYYYTIFRSV,inactive
9,ESICAKWFMIDMNSTHWTGF,-0.614 ± 0.41
10,TVGIVGFHVVVRELWVGVRR,6.868 ± 0.066
11,WQIGPCYNVLRFLKWFWSLR,-0.637 ± 1.1
12,VYRYFNLQVISFWMMARHTM,-1.32 ± 1.1
13,CLYMRFAFHLPELRALTKSP,0.094 ± 0.77
14,SSYGWSGTC,-0.833 ± 0.63
15,SEMDPPYPEISHYRYQRNHW,0.11 ± 0.54
16,LLTTEQ,1.29 ± 0.43
17,RSITGCDWFLH,0.063 ± 1.1
18,NSVFFY,-1.63 ± 1.1
19,RILVTGI,-0.653 ± 0.79
20,TFGYCISLMTLTFVH,-0.239 ± 0.28
21,SYYFGPHWRVYTAFARFRI,inactive
22,TLSTGIFLLHLAYSSLSIDS,0.637 ± 0.35
23,FCPVHSGISS,-0.578 ± 0.79
24,YNARFSTNLTRFGVGF,-1.15 ± 1.1
25,EYFMATE,-0.248 ± 0.35

row,Substance,amyloid nucleation score
1,LCRDCPNRVQLCQLL,-0.684 ± 0.54
2,YAIKMGFASQVSVEFRWLYK,-0.244 ± 0.28
3,NLMCTACILDQWRHCKLVWN,4.15 ± 0.091
4,FSFRLYMEFLWGI,inactive
5,SGPATLLPTLGYNGVIVFGN,-0.444 ± 0.78
6,DGVSHC,0.02 ± 0.79
7,LVCGLDGLVCS,0.111 ± 0.56
8,KVALVHAGLKNFWRSSLWRL,1.11 ± 0.41
9,VDITL,-0.779 ± 0.56
10,KILNDWADMKSRLMGRLLGE,0.65 ± 0.42
11,MSGAFVYAWCLRTGKCTQAG,-0.082 ± 0.27
12,EEWSYVDSEPSIRFSRIQDV,-0.516 ± 0.42
13,FYKREVIFVLRLFFTVKQGR,-1.73 ± 1.1
14,GVPRMTSVDSYRLLLFSASR,0.19 ± 0.25
15,LSLVEIFLGMRSLEVFCWVE,-0.709 ± 0.28
16,RCVGNYIWIKAFPMCLMTRC,-0.825 ± 1.1
17,ESQWYVIDGAPFPTSGVLMS,0.013 ± 0.35
18,PFQVFILHYA,6.356 ± 0.042
19,KLFCTKVNIRRTSYSVTSIY,inactive
20,YIGLVSS,-0.052 ± 0.65
21,VTVNFSANARLCRLGLLNVC,-0.222 ± 0.34
